Test results as given in patent US20130177919.
Substitutions are numbered along the chain they refer to.

Key:
[1] = target: T1, recombinant GST-Flag-CERT(1-138) wild type fusion protein from E. coli
T1 chain: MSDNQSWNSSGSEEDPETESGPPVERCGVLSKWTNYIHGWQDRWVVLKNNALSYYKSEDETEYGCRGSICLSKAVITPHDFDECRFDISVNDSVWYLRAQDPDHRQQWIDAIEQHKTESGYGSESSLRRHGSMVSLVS

[2] = target: T2, recombinant GST-Flag-CERT-S132A(1-138) fusion protein from E. coli
T2 chain: T1 chain with S132A

B1: purified PKD1 (protein)
chain: MSAPPVLRPPSPLLPVAAAAAAAAAALVPGSGPGPAPFLAPVAAPVGGISFHLQIGLSREPVLLLQDSSGDYSLAHVREMACSIVDQKFPECGFYGMYDKILLFRHDPTSENILQLVKAASDIQEGDLIEVVLSASATFEDFQIRPHALFVHSYRAPAFCDHCGEMLWGLVRQGLKCEGCGLNYHKRCAFKIPNNCSGVRRRRLSNVSLTGVSTIRTSSAELSTSAPDEPLLQKSPSESFIGREKRSNSQSYIGRPIHLDKILMSKVKVPHTFVIHSYTRPTVCQYCKKLLKGLFRQGLQCKDCRFNCHKRCAPKVPNNCLGEVTINGDLLSPGAESDVVMEEGSDDNDSERNSGLMDDMEEAMVQDAEMAMAECQNDSGEMQDPDPDHEDANRTISPSTSNNIPLMRVVQSVKHTKRKSSTVMKEGWMVHYTSKDTLRKRHYWRLDSKCITLFQNDTGSRYYKEIPLSEILSLEPVKTSALIPNGANPHCFEITTANVVYYVGENVVNPSSPSPNNSVLTSGVGADVARMWEIAIQHALMPVIPKGSSVGTGTNLHRDISVSISVSNCQIQENVDISTVYQIFPDEVLGSGQFGIVYGGKHRKTGRDVAIKIIDKLRFPTKQESQLRNEVAILQNLHHPGVVNLECMFETPERVFVVMEKLHGDMLEMILSSEKGRLPEHITKFLITQILVALRHLHFKNIVHCDLKPENVLLASADPFPQVKLCDFGFARIIGEKSFRRSVVGTPAYLAPEVLRNKGYNRSLDMWSVGVIIYVSLSGTFPFNEDEDIHDQIQNAAFMYPPNPWKEISHEAIDLINNLLQVKMRKRYSVDKTLSHPWLQDYQTWLDLRELECKIGERYITHESDDLRWEKYAGEQGLQYPTHLINPSASHSDTPETEETEMKALGERVSIL
incorporation of radioactivity ([γ-32P]-ATP, in vitro kinase assay) [1]: incorporation of radioactivity is detected | incorporation of radioactivity ([γ-32P]-ATP, in vitro kinase assay) [2]: This is significantly impaired in the case of the CERT-S132A fusion protein
